IntAct's records for PubMed 29039417

B1: Isoform 2 of Bardet-Biedl syndrome 7 protein (Homo sapiens), Q8IWZ6-2 (parent)
chain: MDLILNRMDYLQVGVTSQKTMKLIPASRHRATQKVVIGDHDGVVMCFGMKKGEAAAVFKTLPGPKIARLELGGVINTPQEKIFIAAASEIRGFTKRGKQFLSFETNLTESIKAMHISGSDLFLSASYIYNHYCDCKDQHYYLSGDKINDVICLPVERLSRITPVLACQDRVLRVLQGSDVMYAVEVPGPPTVLALHNGNGGDSGEDLLFGTSDGKLALIQITTSKPVRKWEIQNEKKRGGILCIDSFDIVGDGVKDLLVGRDDGMVEVYSFDNANEPVLRFDQMLSESVTSIQGGCVGKDSYDEIVVSTYSGWVTGLTTEPIHKESGPGEELKINQEMQNKISSLRNELEHLQYKVLQERENYQQSSQSSKAKSAVPSFGINDKFTLNKDDASYSLILEVQTAIDNVLIQSDVPIDLLDVDKNSAVVSFSSCDSESNDNFLLATYRCQADTTRLELKIRSIEGQYGTLQAYVTPRIQPKTCQVRQYHIKPLSLHQRTHFIDHDRPMNTLTLTGQFSFAEVHSWVVFCLPEVPEKPPAGECVTFYFQNTFLDTQLESTYRKGEGVFKSDNISTISILKDVLSKEATKRKINLNISYEINEVSVKHTLKLIHPKLEYQLLLAKKVQLIDALKELQIHEGNTNFLIPEYHCILEEADHLQEEYKKQPAHLERLYG
partner: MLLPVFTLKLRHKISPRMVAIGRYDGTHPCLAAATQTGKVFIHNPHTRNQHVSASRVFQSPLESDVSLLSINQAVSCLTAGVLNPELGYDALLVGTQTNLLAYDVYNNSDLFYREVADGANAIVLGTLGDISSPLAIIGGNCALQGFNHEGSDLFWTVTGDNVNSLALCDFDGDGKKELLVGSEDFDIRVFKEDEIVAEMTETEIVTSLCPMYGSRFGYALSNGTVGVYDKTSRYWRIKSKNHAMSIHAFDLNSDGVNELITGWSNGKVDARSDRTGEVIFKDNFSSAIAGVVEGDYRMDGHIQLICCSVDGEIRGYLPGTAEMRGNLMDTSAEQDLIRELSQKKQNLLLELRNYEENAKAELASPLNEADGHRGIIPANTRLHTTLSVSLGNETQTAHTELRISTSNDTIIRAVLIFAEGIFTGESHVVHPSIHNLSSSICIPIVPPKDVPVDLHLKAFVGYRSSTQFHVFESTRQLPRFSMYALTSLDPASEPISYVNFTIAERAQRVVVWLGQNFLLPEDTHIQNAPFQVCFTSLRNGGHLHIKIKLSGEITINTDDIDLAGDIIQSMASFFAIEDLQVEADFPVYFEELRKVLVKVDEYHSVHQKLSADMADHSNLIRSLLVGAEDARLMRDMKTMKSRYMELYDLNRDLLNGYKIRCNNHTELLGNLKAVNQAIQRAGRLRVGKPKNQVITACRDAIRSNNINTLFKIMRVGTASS

Variants of: B1
Settings: with bbs2_human BBS2, Q9BXC9

| Variant | effect of a mutation on the interaction |
| --- | --- |
| I575K | with no effect |
| I575E | with no effect |
| I575A | with no effect |
| G538A | with no effect |
| G538K | with no effect |
| G538E | with no effect |
| E555K | with no effect |
| E555A | with no effect |
| N569K | with no effect |
| N569A | with no effect |
| N569E | with no effect |
| D578A | with no effect |
| D578E | with no effect |
| D578K | with no effect |
| Q553E | with no effect |
| Q553K | with no effect |
| Q553A | with no effect |
| N547E | with no effect |
| N547K | with no effect |
| N547A | with no effect |
| S571E | with no effect |
| S571A | with no effect |
| S571K | with no effect |
| Q546K | with no effect |

| Variant | effect of a mutation on the interaction |
| --- | --- |
| Q546E | with no effect |
| Q546A | with no effect |
| E583A | with no effect |
| E583K | with no effect |
| P536K | with no effect |
| P536E | with no effect |
| P536A | with no effect |
| K566E | with no effect |
| K566A | with no effect |
| K588E | with no effect |
| K588A | with no effect |
| I593E | with no effect |
| I593K | with no effect |
| I593A | with no effect |
| T552E | with no effect |
| T552K | with no effect |
| T552A | with no effect |
| N592A | with no effect |
| N592K | with no effect |
| N592E | with no effect |
| S567E | with no effect |
| S567K | with no effect |
| S567A | with no effect |
| V579E | with no effect |

| Variant | effect of a mutation on the interaction |
| --- | --- |
| V579A | with no effect |
| V579K | with no effect |
| E539A | with no effect |
| E539K | with no effect |
| C540A | with no effect |
| C540K | with no effect |
| C540E | with no effect |
| L591K | with no effect |
| L591E | with no effect |
| L591A | with no effect |
| T548S | disrupting interaction strength |
| T548E | with no effect |
| T548K | with no effect |
| T548A | with no effect |
| Y544E | with no effect |
| Y544A | with no effect |
| Y544K | with no effect |
| E562A | with no effect |
| E562K | with no effect |
| D568A | with no effect |
| D568E | with no effect |
| D568K | with no effect |
| K586A | with no effect |
| K586E | with no effect |

| Variant | effect of a mutation on the interaction |
| --- | --- |
| I570A | with no effect |
| I570K | with no effect |
| I570E | with no effect |
| I570L | disrupting interaction strength |
| R587A | with no effect |
| R587E | with no effect |
| R587K | with no effect |
| V541E | with no effect |
| V541A | with no effect |
| V541K | with no effect |
| N598E | with no effect |
| N598A | with no effect |
| N598K | with no effect |
| F549A | with no effect |
| F549K | with no effect |
| F549E | with no effect |
| K560E | with no effect |
| K560A | with no effect |
| T585E | with no effect |
| T585K | with no effect |
| T585A | with no effect |
